# From the DeepSol protein solubility set
# Test: soluble on expression in E. coli; label from the status in PepcDB or PDB records
row,Sequence,soluble on expression in E. coli
1,MVITKHFAIHGKSYRRKLIKYILNPEKTNNLALVSDYGMKNFLDFPSYEEMVQMYHENFISNDTLYDFRHDRMEENQRKIHAHHIIQSFSPEDHITPEQINRIGYETVKELTGGKFRFIVATHVDKDHLHNHIIINSVDSNSDKKLKWDYKVERNLRMISDRFSKIAGAKIIENRYSHQRYEVYRKTNHKYELKQRLYFLMEHSRDFEDFKKNAPLLHVEMDFRHKHATFFITDSTMKQVVRGKQLNRKQPYTEEFFKNYFAKREIESLMEFLLLKVENMDDLLQKAKLFGLTINPKQKHVSFQFAGVEVKETELDQKNLYDVEFFQDYFKNRKDWQAPETEDFVQLYQEEKLSKEKELPSDEKFWESYQEFKSNRDAVHEFEVELSLNQIEKVVDDGIYVKVKFGIRQEGLIFVPNMQLDMEEDKVKVFIRETSSYYVYHKDAAEKNCYMKGRTLIRQFSYENQTIPLRRKATVDMIKEKIAEVDALIELEVENQSYVTIKDELVHELAASELRINELQERMSTLNQVAEYLLASVESKQEMKLNLSKLNITENISANIVEKKLKSLGNQLELERGRYEKMVVRLDKFINRLNTGLSKGDGIDFQK,not soluble
2,MVKDCSYSILLPTYNERENLPYILYFIEEVFESMGERYEVIVVDDNSPDGTLEVAKKLQQVFGSDKVVLAPRAGKLGLGSAYSHGLQFAKGNFIIIMDADLSHHPKYIADFVRKQREGSFDVVTGTRYRGEGGVFGWNWRRKLTSVGANLLAQLLLNPGVSDLTGSFRLYRRQAFEQLIHRTRSKGYVFQMEIIVLAKKLGLRVGEVPIVFIDRLYGESKLGGREVIQYLSGLLCLMFQK,soluble
3,MVKEGWMVHYTSRDNLRKRHYWRLDSKCLTLFQNESGSKYYKEIPLSEILRISSPRDFTNISQGSNPHCFEIITDTMVYFVGENNGDSSHNPVLAATGVGLDVAQSWEKAIRQALM,soluble
4,MVKLHLKTTCREVPIEEIISTGQIQFFKHLSESTSEFKDQKNVERFRLIYNGRALNEESLKKITDADSIRVVLLPPLKTNNHIEEEQKNRISIALKECTAPYTRPNDRRLHGFNHDFALPDHMTTLLEKHPQLVHDNQFLSVLSDWSLFRAYCVQNDFKDDPIRGQFMYTNPDFLKVVENILSTVGSRYGYENLDYANVERNRPGMLAAQRPIGGAQPVTHALLQNALQAALANIAVPPANRVPAPANVQPAQQQQEEPMQQGYEQQAATLREFGFENDELIQLALEQANGDVQAAMEFLIDLQN,not soluble
5,MVKRAKLINDVVELIPIFHLLSTETYRKVYNALLEGWYTARELEEMIGEGYRDALRILKNAGMLEAKWRMPSDPGGKPEKEYHVSYTHVSANFYISLKDLNKVLEVVFMSDDEVEEYVREIIKEIEAGRTSVTYITKDLNLDPLFLRAIAKRSLKLNLKGQLIELAKDEEI,not soluble
6,MVKRTVATNGDASGAHRAKKMSKTHASHIINAQEDYKHMYLSVQPLDIFCWGTGSMCELGLGPLAKNKEVKRPRLNPFLPRDEAKIISFAVGGMHTLALDEESNVWSWGCNDVGALGRDTSNAKEQLKDMDADDSSDDEDGDLNELESTPAKIPRESFPPLAEGHKVVQLAATDNMSCALFSNGEVYAWGTFRCNEGILGFYQDKIKIQKTPWKVPTFSKYNIVQLAPGKDHILFLDEEGMVFAWGNGQQNQLGRKVMERFRLKTLDPRPFGLRHVKYIASGENHCFALTKDNKLVSWGLNQFGQCGVSEDVEDGALVTKPKRLALPDNVVIRSIAAGEHHSLILSQDGDLYSCGRLDMFEVGIPKDNLPEYTYKDVHGKARAVPLPTKLNNVPKFKSVAAGSHHSVAVAQNGIAYSWGFGETYAVGLGPFEDDTEVPTRIKNTATQDHNIILVGCGGQFSVSGGVKLSDEDAEKRADEMDD,soluble
7,MVKTEPLQITTELPGRTSAYRIAEVRPQVSGIILKRNFKEGSDIEAGVSLYQIDPATYQATYDSAKGDLAKAQAAANIAQLTVNRYQKLLGTQYISKQEYDQALADAQQANAAVTAAKAAVETARINLAYTKVTSPISGRIGKSNVTEGALVQNGQATALATVQQLDPIYVDVTQSSNDMMRLKQELANGTLKQENGKAKVSLITSDGIKFPQDGTLEFSDVTVDQTTGSITLRAIFPNPDHTMMPGMFVRARLEEGLNPNAILVPQQGLEHHHHHH,soluble
8,MVKVKIYYKDREWPPEYRKVLEKMKEIIDPVTGESILDSGVLAGLEVKGDTLKVWLKFESNAEYNILGSAAMAYSKIVGDIMEKFALVMFDKVYVYDLGNNPIGIFENKGNGRK,soluble
9,MVLDSGTQVYEQAPPRPPAGSPSQHHKLKPSNGNGPPLYPWPESLGMPLALAVPSALQQQTMWQTFSKLHLEQSSHMRRSESTYSVNSTGRRGRGKAPIGRGCDPGGTLRPAASLPHIAKIRKDVGSSSSKSPCMLVALRPTNMDQEREKFFQSHYTYNPQFEYQEPMPMSVLEKYQEASAQFMNQAVGIIEAVLEKFGTYENFEAATGGQLLTKCQIWSTVRKYMQKEGCVGEIVVQLSEDLLSQAVMMVENSRPTLAINLTGARQYWLEGMLRHEIGTHYLRGVNNSRQPWHSTEGRLQYGLQPANPTEEGLASLHSVLFRKQPFLWRAALLYYTIHQAAHMSFRQLFQDLAQYVQDEGVRWEYCVRAKRGQTDTSQPGCFSKDQVYLDGILRILRHRHTIDFQLLTSLGKVSYEDVEQLRPYGVLDNTRVPHFMKDLERYRQQLEHIMTTNRLDEAELGRLLPD,soluble
10,MVLEGIHSHDPQARDIAIQYYHAAETTIYDYIARRHPQSAQCVTDFMSTVMSGLSAKAREGHSIEQLCATAALAGEAIKTLLKE,not soluble
11,MVLLHKSTHIFPTDFASVSRAFFNRYPNPYSPHVLSIDTISRNVDQEGNLRTTRLLKKSGKLPTWVKPFLRGITETWIIEVSVVNPANSTMKTYTRNLDHTGIMKVEEYTTYQFDSATSSTIADSRVKFSSGFNMGIKSKVEDWSRTKFDENVKKSRMGMAFVIQKLEEARNPQF,not soluble
12,MVLLIIRGDSYEKIKNAIADVHRHAKLTILGKPRIMVPEAADEILEHIVGNIKKPCKKACLVRIEENAPRAIDRIRKIHPPAHIVIVSERHEPYFYLLEDLPKMPLLKGYYKSKSLDSDEEIEESH,not soluble
13,MVLSIERKRAIVQYVKSRKIATVSELAKHFEVHEATIRRDLTSLEKDKKLKRTHGGVMIEEKVVSEPNWKKRSEVRYEEKQRIATLAATMVKDGDTIILDAGTTTGHIATALKDRSKLTVITNDINVASIMRFSPSKVIVTGGVIYPETFILNGMITSGTLQSIHVHKAFVTTPALDIDKGLMHYDEYLIPAKQQMLHSADEVILVTDHTKFGRISLYKYAALDEISSIITGKEIDPVLKEQFEEKGMQIYTTLEHHHHHH,soluble
14,MVLWVFGYGSLIWNPGFDFDEKLIGYIKDYKRVFDLACIDHRGTPEHPARTCTLEQSTGAICWGAAYCVRGGPEKEKLAMEYLERRECEYDSKTLVEFYTENDTSTPIVTGVIVFTSTPDKVSNKYYLGPAPLEEMARQIATASGPCGNNREYLFKLEKAMFDIEHEEEYVIELANEVRKQLDLPEEVKALLKPIVSHVSVKSQAHVSTRQRVFAS,soluble
15,MVLYFIGLGLYDERDITVKGLEIAKKCDYVFAEFYTSLMAGTTLGRIQKLIGKEIRVLSREDVELNFENIVLPLAKENDVAFLTPGDPLVATTHAELRIRAKRAGVESYVIHAPSIYSAVGITGLHIYKFGKSATVAYPEGNWFPTSYYDVIKENAERGLHTLLFLDIKAEKRMYMTANEAMELLLKVEDMKKGGVFTDDTLVVVLARAGSLNPTIRAGYVKDLIREDFGDPPHILIVPGKLHIVEAEYLVEIAGAPMEILRVNV,soluble
16,MVMNAILKKTHFSTAEYLADLAVQALIDEVNLTPKPALVDRRGGGAHDDLNLELMEKSAYSLFPMFKAMAEAAEIHGEVNQALREDIGQLGRQGEQRMLQVTHGINTHRGAIWSIGLVLTATALTLYKQEPCLITEICKTAAEIALLEDRFIPKQQFSHGQMVRQKFGINGAKQQAQQGFPIILEFGLVQLQCSRALNTTETEARLNALLAMMAELSDTCVVHRAGLDGLNMMQSGAREVLQLGGCSTNEGQQRLEQLEQNLLRIRASAGGAADLLATLLFLDQAEQHNSSAPQGRRNQWKY,not soluble
17,MVNTRPPKIDELLKIDPYLHDFQDEISRRYGVFLDYQRRIEECGGMEEFTSSYKQFGLNVQPDNSVKGLEWAPAAEKLALIGDFNNWDQNANVYKKEEHGKWSITVPAKEDGSCPIPHNSVIKIAVSRHGATHFKLSPWATFVTCPNPKETVIYHQNFWNPPEKYQLKEARPARPASLRIYEAHVGISSSEGKINTYREFADDVLPRIQKQGYNAIQLMAVMEHVYYASFGYQVSNFFAVSSRCGTPEDLKYLVDKAHSLGIFMLLDVVHSHASKNVEDGLNQWDGSNGGYFHDNARGYHNLWDSRLFDYTQTETLRFLLSNVRWWVEEYGFDGFRFDGVSSMIYHSHGMNDDFCGGYPMYFGLNADTDSLVYLMLANDFLHKKYPFMITIAEEVSGMPGICRPVEEGGQGFDYRLAMALPDMWIKILKHTSDEDWKIDDIVFNLENRRYAEKHVAYAESHDQALVGDKTIAFWLMDKEMYDFMSTDSPLTPIIDRGLSLHKLIRLITIGLGGEAWLNFIGNEFGHPEWLDFPRVGNGESFHYARRQFNLVDAEYLRYKFLNNWDREMMLLEERTGFLHKGYAYTSWKHDGDKTIVFERGGLVFVINLHPTKSFADYSIGVNTPGRYRIALNSDESKFGGHNRIDNSIKFHTTDDGYAGRRHRLQVYITCRTAIVLEKEDD,not soluble
18,MVPLVAVVSGPRAQLFACLLRLGTQQVGPLQLHTGASHAARNHYEVLVLGGGSGGITMAARMKRKVGAENVAIVEPSERHFYQPIWTLVGAGAKQLSSSGRPTASVIPSGVEWIKARVTELNPDKNCIHTDDDEKISYRYLIIALGIQLDYEKIKGLPEGFAHPKIGSNYSVKTVEKTWKALQDFKEGNAIFTFPNTPVKCAGAPQKIMYLSEAYFRKTGKRSKANIIFNTSLGAIFGVKKYADALQEIIQERNLTVNYKKNLIEVRADKQEAVFENLDKPGETQVISYEMLHVTPPMSPPDVLKTSPVADAAGWVDVDKETLQHRRYPNVFGIGDCTNLPTSKTAAAVAAQSGILDRTISVIMKNQTPTKKYDGYTSCPLVTGYNRVILAEFDYKAEPLETFPFDQSKERLSMYLMKADLMPFLYWNMMLRGYWGGPAFLRKLFHLGMS,not soluble
19,MVQDQLTSILTTVGLNLMAKLTDNSRSVVISPSEVALSVAKSTLKHCEPLPYELFQSDYESEFRELIEQLENFEAMKVNPSPPVWNFAISEFKKKNFKLSNGKLKKMNFIWINLETNMELSCEKTGAQMAQDKEFKVLSIPLAGDAGKFVVFFPENQEETIEESLKKLNTRKFQRLIDDLVPKFIHFEHPVFKIQSKFFISENLTMTDRGLTHEKEFEVCHGENNDFRRGLLMDRCEYVPYIFRVNRPFIFCVVQNGVPVTMGIFDGN,not soluble
20,MVQHSDEKGGAMTTLAIDIGGTKLAAALIGADGQIRDRRELPTPASQTPEALRDALSALVSPLQAHAQRVAIASTGIIRDGSLLALNPHNLGGLLHFPLVKTLGQLTDLPTIAINDAQAAAWAEYQALEGDITDMVFITVSTGVGGGVVSGGKLLTGPGGLAGHIGHTLADPHGPVCGCGRTGCVEAIASGRGIAAAAQGELAGADAKTIFMRAGQGDEQAQQLIHRSAHVLARLIADIKATTDCQCVVVGGSVGLAEGYLALVETYLAQEPAAFHVDLLAAHYRHDAGLLGAALLAQGEKL,soluble
21,MVRIIVKNVSKVFKKGKVVALDNVNINIENGERFGILGPSGAGKTTFMRIIAGLDVPSTGELYFDDRLVASNGKLIVPPEDRKIGMVFQTWALYPNLTAFENIAFPLTNMKMSKEEIRKRVEEVAKILDIHHVLNHFPRELSGAQQQRVALARALVKDPSLLLLDEPFSNLDARMRDSARALVKEVQSRLGVTLLVVSHDPADIFAIADRVGVLVKGKLVQVGKPEDLYDNPVSIQVASLIGEINELEGKVTNEGVVIGSLRFPVSVSSDRAIIGIRPEDVKLSKDVIKDDSWILVGKGKVKVIGYQGGLFRITITPLDSEEEIFTYSDHPIHSGEEVLVYVRKDKIKVFEKN,soluble
